Reference: paper PMC10421056 (Science Advances, 2023)
Blank lines part the entries; values can stand above or below the binder they belong to.

Molecular target: His-tagged histone H2B.9 (Arabidopsis, UniProt O23629 1-150)
Experiment: reconstitution of histone heterodimers

Sequence of His-tagged histone H2B.9 (O23629 whole entry): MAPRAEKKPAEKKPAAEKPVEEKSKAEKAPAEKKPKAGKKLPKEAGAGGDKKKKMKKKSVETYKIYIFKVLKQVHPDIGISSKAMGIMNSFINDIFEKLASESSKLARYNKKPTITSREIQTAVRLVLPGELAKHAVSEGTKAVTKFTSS

- binding result: binds
B1: His-tagged histone H2A.X.3 (natural protein)
chain: MSSGAGSGTTKGGRGKPKATKSVSRSSKAGLQFPVGRIARFLKAGKYAERVGAGAPVYLSAVLEYLAAEVLELAGNAARDNKKTRIVPRHIQLAVRNDEELSKLLGSVTIANGGVLPNIHQTLLPSKVGKNKGDIGSASQEF

- binding result: binds
B2: His-tagged histone H2A.Z.9 (natural protein)
chain: not shown
